In patent US20040265797A1:

Target: Vitronectin purified from human plasma (human) (UniProt P04004)
Experiment: ELISA: biotinylated suPAR without uPA1-48 on vitronectin-coated wells

Chain of Vitronectin purified from human plasma (human) (P04004 20-478): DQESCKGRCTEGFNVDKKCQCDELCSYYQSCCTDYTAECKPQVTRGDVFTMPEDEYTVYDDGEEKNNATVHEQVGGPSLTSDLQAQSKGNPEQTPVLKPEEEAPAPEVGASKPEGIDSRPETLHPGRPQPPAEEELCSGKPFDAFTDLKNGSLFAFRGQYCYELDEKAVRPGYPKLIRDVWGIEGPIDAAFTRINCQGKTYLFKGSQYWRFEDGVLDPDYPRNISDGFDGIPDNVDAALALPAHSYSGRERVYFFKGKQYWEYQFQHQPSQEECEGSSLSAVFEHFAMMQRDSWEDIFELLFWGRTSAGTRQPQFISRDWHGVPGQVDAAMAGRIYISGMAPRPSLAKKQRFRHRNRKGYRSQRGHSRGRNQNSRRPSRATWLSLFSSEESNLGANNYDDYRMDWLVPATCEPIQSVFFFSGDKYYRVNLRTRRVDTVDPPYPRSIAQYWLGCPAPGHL

mean absorbance at 450 nm: 0.03 OD450
Substance: Soluble recombinant human urokinase receptor (suPAR) (from UniProt Q03405 23-299)
